Measurements from patent US7479385B2, “Sugar kinases with expanded substrate specificity and their use” (Wisconsin Alumni Research Foundation, priority 2003, dated 2009).

What was measured:
wild-type E. coli GalK = biological target: T1, wild-type E. coli GalK (Escherichia coli, UniProt P0A6T3); assay type: biochemical
T1 construct: made in house
T1 sequence (P0A6T3 1-382): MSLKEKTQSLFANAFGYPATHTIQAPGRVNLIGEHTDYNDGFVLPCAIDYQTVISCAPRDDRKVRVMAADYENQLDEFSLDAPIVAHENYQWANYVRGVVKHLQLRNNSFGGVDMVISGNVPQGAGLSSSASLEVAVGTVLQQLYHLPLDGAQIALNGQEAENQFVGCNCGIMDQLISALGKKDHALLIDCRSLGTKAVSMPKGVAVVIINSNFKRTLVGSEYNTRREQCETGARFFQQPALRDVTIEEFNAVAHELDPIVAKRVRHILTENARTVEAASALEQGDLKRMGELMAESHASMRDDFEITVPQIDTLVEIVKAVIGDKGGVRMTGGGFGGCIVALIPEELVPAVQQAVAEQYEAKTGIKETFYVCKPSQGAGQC
Source text: (§1) Characterization of GalK Mutants. […] The mutant enzymes were purified by using metal affinity chromatography on Ni-NTA Spin Columns (QIAGEN, Valencia, Calif.) and fractions containing homogenous protein were collected, concentrated and quantified using the Bradford protein assay. The DNS assay was used to assess the substrate specificity of the purified GalK mutants as previously described. […] For each sugar, the DNS assay was used to monitor the reaction progress and control assays in the absence of enzyme or sugar were performed in parallel. Standard curves for each sugar were prepared as described. To assess general percent conversion, each reaction contained 15.0 (M enzyme, 8 mM sugar, 14 mM ATP and 3.5 mM MgCl2. The reactions were incubated at 37° C. for 3 hrs after which the reactions were quenched with MeOH, centrifuged (10 min, 12,000 rpm) and then the supernatant (diluted 20-fold) submitted for LC-MS and MS/MS analysis. For monosaccharide kinetic data determination, the sugar concentration was varied over a range of 1-8 mM, under saturating ATP (14 mM). Reaction progress was assessed via the DNS assay, wherein a change in absorbance at 575 nm as a function of time was obtained and the initial velocity determined by the slope of the linear phase in the progress curve. The kinetic data was analyzed using Enzyme Kinetics Module software (SSPS, Inc., Chicago, Ill.) as previously described.
(§2) Characterization of Engineered E. coli GalK Mutants.

[1] = biological target: T2, E. coli double M173L-Y371H mutant GalK (Escherichia coli, UniProt P0A6T3, M173L/Y371H); test: Substrate screen / percent conversion of 45 sugars, M173L-Y371H; assay type: biochemical
T2 construct: His-tag (concluded from Ni-NTA purification and vector pET15b); made in house
Source text: as §1, with “The reactions were incubated at 37° C. for 3 hrs after which the reactions were quenched with MeOH, centrifuged (10 min, 12,000 rpm) and then the supernatant (diluted 20-fold) submitted for LC-MS and MS/MS analysis.” left out
as §2

L. lactis wild-type GalK = biological target: T3, L. lactis wild-type GalK (Lactococcus lactis subsp. lactis, UniProt Q9R7D7); settings: in vitro; cited from earlier work
T3 sequence (Q9R7D7 1-399): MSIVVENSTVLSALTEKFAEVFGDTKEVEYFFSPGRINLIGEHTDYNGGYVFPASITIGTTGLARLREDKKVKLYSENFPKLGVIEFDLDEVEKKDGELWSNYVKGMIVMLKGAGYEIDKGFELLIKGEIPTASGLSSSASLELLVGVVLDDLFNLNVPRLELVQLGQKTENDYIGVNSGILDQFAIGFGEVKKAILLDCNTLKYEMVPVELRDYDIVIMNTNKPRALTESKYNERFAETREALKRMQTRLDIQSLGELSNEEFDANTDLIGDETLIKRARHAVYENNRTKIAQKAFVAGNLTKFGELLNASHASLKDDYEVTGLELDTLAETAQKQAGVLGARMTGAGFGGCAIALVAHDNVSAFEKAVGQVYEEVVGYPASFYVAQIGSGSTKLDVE

[2] = biological target: T4, E. coli GalK Y371H mutant (Escherichia coli, UniProt P0A6T3, Y371H); assay type: biochemical
T4 construct: His-tag (concluded from Ni-NTA purification and vector pET15b); made in house; host or cells: E. coli BL21-Gold (DE3), vector pET15b
Source text: as §1, §2

[3] = biological target: T5, E. coli GalK M173L mutant (Escherichia coli, UniProt P0A6T3, M173L); test: Substrate screen / percent conversion of 45 sugars, M173L; assay type: biochemical
T5 construct: His-tag (concluded from Ni-NTA purification and vector pET15b); made in house
Source text: as §1, §2

Y371H-M173L GalK = biological target: T6, Y371H-M173L GalK (Escherichia coli, UniProt P0A6T3, M173L/Y371H); test: In vivo conversion of fed unnatural sugars to sugar-1-phosphates in E. coli host overexpressing GalK double mutant; assay type: cell-based; settings: sugar fed at 4 mM to E. coli overexpressing Y371H-M173L GalK, 16° C., 16 hr; fluorescence HPLC after labelling with 50
T6 construct: His-tag (concluded: same plasmid pGalKMLYH in pET-15b whose product was purified on Ni-NTA); expressed in transfected cells; host or cells: E. coli host carrying pGalKMLYH (pET-15b), IPTG-induced at 16 °C
Source text: FIG. 9. In vivo GalK-catalyzed sugar-1-phosphate production. (a) Experimental overview using 6-azido-6-deoxy-D-galactose (22) as an example: 22 is fed to an E. coli host expressing the M173L-Y371H GalK double mutant and the reactants and products subsequently labeled using a […] with the fluorescent tag 50. (b) HPLC chromatographs of bioconversions: i)22 with Y371H-M173L GalK; ii)46 with Y371H-M173L GalK; iii) 22 with wild-type GalK. MS: 50, calculated for C20H25N3O3S 387.2, found m/z 386.1 [M−H]^−; 51, calculated for C26H37N6O11PS 672.2, found m/z 671.2 [M−H]^−; 52, calculated for C26H36N6O8S 592.2, found m/z 591.2 [M−H]
In Vivo Conversion Analysis. […] The reaction mixture was subsequently centrifuged to remove CuI and the supernatant (diluted 2-fold) directly analyzed by HPLC and LC-MS calculated for C26H37N6O11PS 672.20, found m/z […] 671.20.
To assess the Y371H-M173L GalK-catalyzed in vivo production of unnatural sugar-1-phosphates (FIG. 9a), the unnatural sugars (22 or 46, 4 mM final concentration) were fed to an E. coli host (40 mL culture) which overexpressed the promiscuous GalK. After a designated time, the extracts were analyzed via the specific attachment of a fluorescent tag (50), to both starting material (22 or 46) and desired sugar-1-phosphate products, using 1,3-dipolar cycloaddition. […]

GalK mutant Y371H = GalK mutant Y371H (Escherichia coli, UniProt P0A6T3, Y371H); settings: sugar 1-16 mM, saturating ATP (15 mM)
OCC1OC(O)CC(O)C1O = test: purified protein, by the assay type; settings: other: sugar 1-16 mM, saturating ATP (15 mM)
O=C(O)C1OC(O)C(O)C(O)C1O = test: purified protein, by the assay type; settings: other: sugar 1-16 mM, saturating ATP (15 mM)
CC1OC(O)C(O)C(O)C1O = test: purified protein, by the assay type; settings: other: sugar 1-16 mM, saturating ATP (15 mM)
NCC1OC(O)C(O)C(O)C1O = test: purified protein, by the assay type; settings: other: sugar 1-16 mM, saturating ATP (15 mM)
[4] = test system: O=C[C@H](O)C[C@@H](O)[C@H](O)CO; test: purified protein, by the assay type; settings: other: sugar 1-16 mM, saturating ATP (15 mM)
NC1C(O)OC(CO)C(O)C1O = test: purified protein, by the assay type; settings: other: sugar 1-16 mM, saturating ATP (15 mM)
[5] = substrate: OCC1OC(O)CC(O)C1O; test: Kinetics and substrate specificity of wild-type GalK with sugar substrates (DNS assay), Table 1; assay type: biochemical, E. coli; settings: other: sugar 1-16 mM, saturating ATP (15 mM)
[6] = substrate: CC1OC(O)C(O)C(O)C1O; test: as above; assay type: biochemical, E. coli; settings: other: sugar 1-16 mM, saturating ATP (15 mM)
[7] = substrate: O=C[C@H](O)C[C@@H](O)[C@H](O)CO; test: as above; assay type: biochemical, E. coli; settings: other: sugar 1-16 mM, saturating ATP (15 mM)
[8] = substrate: NC1C(O)OC(CO)C(O)C1O; test: as above; assay type: biochemical, E. coli; settings: other: sugar 1-16 mM, saturating ATP (15 mM)

T2 sequence (P0A6T3 whole entry M173L/Y371H): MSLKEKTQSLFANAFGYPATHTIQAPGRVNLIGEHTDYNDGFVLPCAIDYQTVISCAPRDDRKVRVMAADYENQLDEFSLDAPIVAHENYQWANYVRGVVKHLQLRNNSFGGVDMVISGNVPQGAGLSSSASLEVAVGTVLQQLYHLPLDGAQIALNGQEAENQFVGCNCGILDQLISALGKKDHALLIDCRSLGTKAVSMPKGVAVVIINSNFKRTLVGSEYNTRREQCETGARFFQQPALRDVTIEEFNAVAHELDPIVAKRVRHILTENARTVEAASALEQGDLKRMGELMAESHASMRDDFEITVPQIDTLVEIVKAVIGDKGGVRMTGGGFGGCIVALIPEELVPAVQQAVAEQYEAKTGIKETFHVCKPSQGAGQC
Sequence of GalK mutant Y371H (P0A6T3 whole entry Y371H): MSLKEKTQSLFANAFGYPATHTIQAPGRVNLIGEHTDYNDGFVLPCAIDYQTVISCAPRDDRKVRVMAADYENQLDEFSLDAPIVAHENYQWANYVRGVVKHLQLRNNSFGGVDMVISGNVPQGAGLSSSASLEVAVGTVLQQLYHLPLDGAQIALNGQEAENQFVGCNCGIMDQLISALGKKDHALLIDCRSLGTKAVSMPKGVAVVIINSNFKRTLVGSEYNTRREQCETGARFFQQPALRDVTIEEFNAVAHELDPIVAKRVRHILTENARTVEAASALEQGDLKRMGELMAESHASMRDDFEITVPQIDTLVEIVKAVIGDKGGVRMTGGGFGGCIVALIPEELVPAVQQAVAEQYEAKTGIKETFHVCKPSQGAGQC
T6 sequence (P0A6T3 whole entry M173L/Y371H): as the sequence (P0A6T3 whole entry M173L/Y371H) above
T5 sequence (P0A6T3 whole entry M173L): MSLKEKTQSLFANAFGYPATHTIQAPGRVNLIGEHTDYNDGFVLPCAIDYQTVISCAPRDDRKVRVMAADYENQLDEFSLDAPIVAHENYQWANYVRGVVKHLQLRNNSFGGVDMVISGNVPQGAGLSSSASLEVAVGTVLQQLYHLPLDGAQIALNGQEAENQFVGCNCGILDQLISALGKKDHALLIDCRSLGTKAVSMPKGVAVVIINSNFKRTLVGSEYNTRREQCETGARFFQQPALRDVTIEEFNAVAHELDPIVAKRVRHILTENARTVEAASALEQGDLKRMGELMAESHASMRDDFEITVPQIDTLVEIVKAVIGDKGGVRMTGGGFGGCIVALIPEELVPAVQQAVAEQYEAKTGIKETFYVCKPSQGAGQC
T4 sequence (P0A6T3 whole entry Y371H): as the sequence (P0A6T3 whole entry Y371H) above

For `[N-]=[N+]=N[C@H]([C@H](O)[C@@H](O)C=O)[C@H](O)CO` [4-azido-4-deoxy-D-galactose (21), 4-azido-4-deoxy-D-galactose], the “substrate of wild-type E. coli GalK (in words)” value (wild-type E. coli GalK) is given as “not a substrates”, the “kinase activity of M173L-Y371H double mutant (in words)” value [1] is given as “accept” and the “conversion / activity with L. lactis wild-type GalK (in words)” value (L. lactis wild-type GalK) is given as “in vitro conversion”.

For `O=C[C@H](O)[C@@H](O)C[C@H](O)CO` [4-deoxy-D-galactose (25), 4-deoxy-D-galactose], the “conversion / activity with L. lactis wild-type GalK (in words)” value (L. lactis wild-type GalK) is given as “in vitro conversion”.

For `[N-]=[N+]=NC[C@@H](O)[C@H](O)[C@H](O)[C@@H](O)C=O` [6-azido-6-deoxy-D-galactose (22), 6-azido-6-deoxy-D-galactose], the “substrate of Y371H (in words)” value [2] was “failed”, the “substrate of wild-type E. coli GalK (in words)” value (wild-type E. coli GalK) was “not a substrates” and the “substrate of M173L (in words)” value [3] was “failed”. The “kinase activity of M173L-Y371H double mutant (in words)” value [1] was “accept”, the “in vitro yield (conversion) quoted for comparison with in vivo” value ([1]; in vitro) was about 50% and the “in vitro conversion by M173L-Y371H” value ([1]; in vitro, in 2 hrs) was over 50%. For the same molecule, the “in vivo conversion to sugar-1-phosphate” value (Y371H-M173L GalK) was about 69%.

With `O=C[C@@H](O)[C@H](O)[C@@H](O)[C@@H](O)CO` [L-Glc (25), L-glucose] the Km (GalK mutant Y371H; read-out: Km, Y371H) was 2.7 mM and the “kcat, Y371H” value (GalK mutant Y371H) was 1.08 s⁻¹.

Work on “GalK mutant Y371H (Escherichia coli K-12; Y371H)” yielded a Km (OCC1OC(O)CC(O)C1O) of 4.7 mM, a kcat (OCC1OC(O)CC(O)C1O) of 3.33 s⁻¹ and a kcat/Km (OCC1OC(O)CC(O)C1O) of 710 M⁻¹ s⁻¹. For the same molecule, the Km (O=C(O)C1OC(O)C(O)C(O)C1O) was 3.2 mM, the kcat (O=C(O)C1OC(O)C(O)C(O)C1O) was 0.967 s⁻¹ and the kcat/Km (O=C(O)C1OC(O)C(O)C(O)C1O) was 302 M⁻¹ s⁻¹. It also gave a Km (CC1OC(O)C(O)C(O)C1O) of 8.0 mM, a kcat (CC1OC(O)C(O)C(O)C1O) of 1.68 s⁻¹ and a kcat/Km (CC1OC(O)C(O)C(O)C1O) of 210 M⁻¹ s⁻¹. The Km (NCC1OC(O)C(O)C(O)C1O) was 21.3 mM, the kcat (NCC1OC(O)C(O)C(O)C1O) was 2.48 s⁻¹ and the kcat/Km (NCC1OC(O)C(O)C(O)C1O) was 117 M⁻¹ s⁻¹. It also gave a Km [4] of 10.1 mM, a kcat [4] of 1.08 s⁻¹ and a kcat/Km [4] of 107 M⁻¹ s⁻¹. The Km (NC1C(O)OC(CO)C(O)C1O) was 8.8 mM, the kcat (NC1C(O)OC(CO)C(O)C1O) was 4.33 s⁻¹ and the kcat/Km (NC1C(O)OC(CO)C(O)C1O) was 492 M⁻¹ s⁻¹.

B1: wild-type E. coli GalK (Escherichia coli K-12) (protein)
chain: MSLKEKTQSLFANAFGYPATHTIQAPGRVNLIGEHTDYNDGFVLPCAIDYQTVISCAPRDDRKVRVMAADYENQLDEFSLDAPIVAHENYQWANYVRGVVKHLQLRNNSFGGVDMVISGNVPQGAGLSSSASLEVAVGTVLQQLYHLPLDGAQIALNGQEAENQFVGCNCGIMDQLISALGKKDHALLIDCRSLGTKAVSMPKGVAVVIINSNFKRTLVGSEYNTRREQCETGARFFQQPALRDVTIEEFNAVAHELDPIVAKRVRHILTENARTVEAASALEQGDLKRMGELMAESHASMRDDFEITVPQIDTLVEIVKAVIGDKGGVRMTGGGFGGCIVALIPEELVPAVQQAVAEQYEAKTGIKETFYVCKPSQGAGQC
notes: made in house
B1 showed a Km [5] of 3.6 mM, a kcat [5] of 0.5 s⁻¹ and a kcat/Km [5] of 138 M⁻¹ s⁻¹. The Km [6] was 4.9 mM, the kcat [6] was 0.0483 s⁻¹ and the kcat/Km [6] was 9.83 M⁻¹ s⁻¹. The Km [7] was 6.4 mM, the kcat [7] was 0.085 s⁻¹ and the kcat/Km [7] was 13 M⁻¹ s⁻¹. The Km [8] was 2.9 mM, the kcat [8] was 0.195 s⁻¹ and the kcat/Km [8] was 66.7 M⁻¹ s⁻¹.
